Assay results reported in US8691944B2, “Fibronectin polypeptides and methods of use” (The Research Foundation for the State University of New York, priority 2005, dated 2014).
pKd: −log10 of the molar value. Where no end group is shown, it is not given here.

Key:
[1] = biological target: T1, PDGF-BB (Homo sapiens, UniProt P01127); assay: Equilibrium binding of PDGF-BB to FN, FN domains and peptides
Text: (§1) This led us to speculate that PDGF was binding to the engineered ECM through the H or HV domain since vascular endothelial GF (VEGF), a member of the PDGF superfamily, had been reported to bind H and remain active while bound.
(§2) The survival of FN-null fibroblasts in the presence to PDGF-BB required substrate coated with intact FN or FNIII8-11+a PDGF-binding FN domain. […] To address this directly, we performed equilibrium binding assays with PDGF-BB to FN adsorbed to a surface or coupled to agarose beads. In addition, we also investigated the ability of other growth factors to bind intact FN.

[2] = biological target: T1, PDGF-BB; assay: Surface plasmon resonance kinetic binding of PDGF-BB to FN domains
Text: VEGF, TGF-β1, PDGF-BB and FGF-2 bound IIICS with similar affinities (KD˜10^−7 M). […] The tested biological activities of GFs bound to a FN functional domain were retained or enhanced. […] In addition, our studies provide important information regarding the delivery of GFs and the sequestering of GFs, as appropriate, for therapeutic (e.g., surgical) or aesthetic indications, including wound healing treatments (where an aim is GF delivery) and cancer treatments (where an aim is GF sequestration). Where FN fragments are used to deliver GFs, they may be described as maintaining, activating, stabilizing or enhancing GF activity. […]

[3] = biological target: T2, TGF-β1 (Homo sapiens, UniProt P01137); assay: Plasmon surface resonance kinetic binding of TGF-β1 to FN domains; conditions: plasmon resonance
Text: (§3) VEGF, TGF-β1, PDGF-BB and FGF-2 bound IIICS with similar affinities (KD˜10^−7 M). […] The tested biological activities of GFs bound to a FN functional domain were retained or enhanced. […] In addition, our studies provide important information regarding the delivery of GFs and the sequestering of GFs, as appropriate, for therapeutic (e.g., surgical) or aesthetic indications, including wound healing treatments (where an aim is GF delivery) and cancer treatments (where an aim is GF sequestration). Where FN fragments are used to deliver GFs, they may be described as maintaining, activating, stabilizing or enhancing GF activity.
(§4) To determine whether FN domains bind TGF-β1 and bFGF, equilibrium and kinetic binding was performed.

[4] = biological target: FGF-2 (Homo sapiens, UniProt P09038); assay: Plasmon resonance binding of FGF-2 to FN domains
Text: as §3

[5] = test system: VEGF; assay: Plasmon resonance binding of VEGF to FN domains
Text: as §3

[6] = test system: mouse fibroblasts null for FN (FN−/−); assay: Survival of FN-null fibroblasts on FN domains with PDGF-BB; assay type: cell-based; conditions: for FN-null cell survival / proliferation with PDGF-BB: FNIII8-11 + the named domain, or named protein; for FN-null cell survival with PDGF: plastic precoated with 0.15 μM GST-tagged FNIII8-11 ± the named domain, or named protein, PDGF-BB added 1 day after plating, 3 days
Text: To further investigate the response of cells to PDGF-BB bound to FN domains, we investigated the survival response of mouse fibroblasts null for FN (FN−/−). First we determined the response of FN-null cells to PDGF-BB in the absence of serum or other sources of exogenous FN. […] […] […] Importantly, differential response of FN-null cells, plated on different FN domains, to PDGF-BB was not secondary to differences in attachment as judged by cell counts two hours after plating. The FNIII8-11 central cell binding domain was present in all circumstances.

[7] = test system: human dermal fibroblasts; assay: Type 1 collagen production by fibroblasts on FN domain coated plates preincubated with TGF-β1; assay type: cell-based; conditions: for type 1 collagen production in response to preincubated TGF-β1: plates coated with FNIII8-11 alone or with the named domain
Text: Therefore, we investigated whether it retained its activity while bound to recombinant FN functional domains. FNIII8-11 was adsorbed on plastic tissue culture dishes at a surface density to maximally affect the attachment and spreading of human dermal fibroblasts with or without the presence of adsorbed FNIII1-2. […] The maximum collagen secretion was approximately 25% of the amount observed when TGF-β1 remained in the medium at the concentrations indicated. […] The numbers of attached and spread cells were essentially identical when fibroblasts were cultures on plates coated with both FNIII8-11 and FNIII1-2 or FNIII8-11 alone. Similar data was obtained when fibroblasts were cultured on plates that had been coated with FNIII8-11 and FNIII12-V15 and then preincubated with TGF-β1.

[8] = test system: fibroblast chemotaxis; assay: Fibroblast chemotaxis to GFs in the presence or absence of FN domains; assay type: cell-based; conditions: in solution
Protocol: To determine whether FN functional domains modulated TGF-β1, bFGF or PDGF-BB activity in solution, fibroblast chemotaxis was performed in response to the GFs in the presence or absence of FN domains.

[9] = test system: ERK; assay: ERK response to PDGF-BB in presence and absence of FNIII1-2; assay type: cell-based; conditions: preliminary results
Protocol: In preliminary results investigating signal transduction pathway activation of growth factors in the presence of FN GF-binding peptides, the response of ERK to PDGF-BB in the presence and absence of FNIII1-2 was studied. Without FNIII1-2, the ERK response to PDGF-BB was maximum at 20 minutes and gradually diminished over four hrs. In the presence of FNIII 1-2, the ERK response to PDGF-BB, was about 25% greater and sustained for at least four hours.

[10] = biological target: T2, TGF-β1; assay: Equilibrium binding of TGF-β1 to FN, FN domains and peptides; conditions: equilibrium binding
Protocol: These peptides represent domains that follow the sequence pattern [QN]-X(1,2)-[ST]-X(0,1)-[IG]-[QS]-[KRQ]-[YTM]-[IG]-X(4,5)-X(0,1)-[KR]-X(1,2)-X(1,2)-[RT]-X(1,2)-[KQTS]-X(2)-T and that bind TGF-β1 with a certain affinity. […] We know of no other peptides in the human genome database that follow this pattern.
as §4

[11] = biological target: bFGF (Homo sapiens, UniProt P09038); assay: Equilibrium binding of bFGF (FGF-2) to FN, FN domains and peptides; conditions: equilibrium binding, intact FN; read-out: KD, bFGF (FGF-2) binding
Protocol: as §2, §4

[12] = biological target: EGF (Homo sapiens, UniProt P01133); assay: Binding of EGF to FN, FN domains and peptides
Text: as §3, §2, §4

[13] = biological target: TGF-α (Homo sapiens, UniProt P01135); assay: Binding of TGF-α to FN, FN domains and peptides
Protocol: as §2, §4

[14] = biological target: FGF-1 (Homo sapiens, UniProt P05230); assay: Binding of FGF-1 to FN, FN domains and peptides
Protocol: as §2, §4

[15] = test system: CCL-64 mink lung cells; assay: Inhibition of [3H]-thymidine incorporation by CCL-64 cells by FN-adhered TGF-β; assay type: cell-based
[16] = biological target: PDGF-BB binding to FNIII1, FNIII12-14 and IIICS (Homo sapiens, UniProt P01127); assay: Inhibition of PDGF-BB binding to FN domains by FNIII1 peptides
Text: Next, we determined if PDGF-BB-binding peptides from FNIII1 could inhibit PDGF-BB binding to FNIII1, FNIII12-14 and IIICS. For initial experiments we selected peptide 1 and peptide 2. For control, we used scrambled peptide 1.

[17] = test system: GFs; assay: Growth factor binding to FN domains (GFs in general)
Text: as §1

[18] = biological target: TGF-β1 binding to any recombinant FN domain (Homo sapiens, UniProt P01137); assay: Inhibition of TGF-β1 binding to recombinant FN domains
[19] = biological target: bFGF binding to any recombinant FN domain (Homo sapiens, UniProt P09038); assay: Inhibition of bFGF binding to recombinant FN domains
bFGF binding to any recombinant FN domain, sequence (P09038 134-288 limits assumed): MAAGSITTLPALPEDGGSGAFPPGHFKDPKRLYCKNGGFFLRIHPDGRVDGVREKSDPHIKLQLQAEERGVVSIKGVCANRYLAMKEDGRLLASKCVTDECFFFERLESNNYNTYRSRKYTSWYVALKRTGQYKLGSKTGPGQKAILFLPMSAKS

FGF-2, sequence (P09038 143-288): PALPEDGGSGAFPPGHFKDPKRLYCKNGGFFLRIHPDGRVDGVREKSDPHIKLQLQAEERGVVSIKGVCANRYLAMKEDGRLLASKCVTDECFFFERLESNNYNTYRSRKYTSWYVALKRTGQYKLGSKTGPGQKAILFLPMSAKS
T1 sequence (P01127 82-190 limits assumed): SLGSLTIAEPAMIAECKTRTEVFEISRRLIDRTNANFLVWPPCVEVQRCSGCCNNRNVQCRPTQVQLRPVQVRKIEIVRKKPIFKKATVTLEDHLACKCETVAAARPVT
T2 sequence (P01137 279-390 limits assumed, species assumed): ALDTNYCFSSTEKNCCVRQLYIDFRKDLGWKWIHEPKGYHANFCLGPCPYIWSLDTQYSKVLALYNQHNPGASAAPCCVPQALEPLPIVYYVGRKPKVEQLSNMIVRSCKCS
PDGF-BB binding to FNIII1, FNIII12-14 and IIICS, sequence (P01127 82-190 limits assumed): as the sequence (P01127 82-190 limits assumed) above
EGF, sequence (P01133 971-1023 limits assumed, species assumed): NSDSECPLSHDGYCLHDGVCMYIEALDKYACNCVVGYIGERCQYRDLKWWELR
FGF-1, sequence (P05230 whole entry, species assumed, the tested form may be a part): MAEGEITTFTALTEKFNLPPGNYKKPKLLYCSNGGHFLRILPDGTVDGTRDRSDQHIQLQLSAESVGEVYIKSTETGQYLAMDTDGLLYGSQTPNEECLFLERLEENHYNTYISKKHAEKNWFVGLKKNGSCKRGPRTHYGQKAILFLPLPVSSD
bFGF, sequence (P09038 143-288): as the sequence (P09038 143-288) above
TGF-α, sequence (P01135 40-89 limits assumed, species assumed): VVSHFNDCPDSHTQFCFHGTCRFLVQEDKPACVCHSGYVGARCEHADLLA
TGF-β1 binding to any recombinant FN domain, sequence (P01137 279-390 limits assumed): as the sequence (P01137 279-390 limits assumed, species assumed) above

Substance	PDGF-BB binding (in words) [2]	TGF-β1 binding (in words) [3]	FGF-2 binding (in words) [4]	VEGF binding (in words) [5]	PDGF-BB binding (in words) [1]	further results
FNIII1-2: recombinant FN type III repeats 1-2	all four GFs bound	all four GFs bound	all four GFs bound	all four GFs bound		pKd [1]: 7.43; pKd ([2]; kinetic binding): 8.04; FN-null cell survival / proliferation with PDGF-BB [6]: enhance survival; type 1 collagen production in response to preincubated TGF-β1 [7]: produced type 1 collagen in a dose response fashion; maximum collagen secretion, % of amount when TGF-β1 remained in the medium ([7]; plates coated with FNIII8-11 and FNIII1-2, preincubated with TGF-β1): approximately 25%; chemotactic activity when assayed alone [8]: no chemotactic activity; enhancement of chemotactic activity of TGF-β1, bFGF and PDGF-BB [8]: enhanced the chemotactic activity; ERK response to PDGF-BB, increase versus without FNIII1-2 [9]: about 25%; duration of sustained ERK response to PDGF-BB [9]: at least four
FN630-667: one half of the 76 aa FNIII1 peptide FN630-704					demonstrated PDGF-BB binding	
FNIII1-11: recombinant FN type III repeats 1-11	bound	bound	did not	did not		FN-null cell survival in the absence of PDGF-BB [6]: survived; FN-null cell survival / proliferation with PDGF-BB [6]: robust proliferation; FN-null cell survival with PDGF [6]: The best survival response
FNIII8-V15: FN type III repeats 8 to V15						FN-null cell survival / proliferation with PDGF-BB [6]: robust proliferation
FNIII2: recombinant second FN type III repeat	all four GFs bound	all four GFs bound	all four GFs bound	all four GFs bound		
fibronectin [intact FN]						pKd [1]: 7.31; pKd [10]: 7.28; pKd [11]: 7.36; EGF binding (in words) [12]: did not; TGF-α binding (in words) [13]: did not; FGF-1 binding (in words) [14]: did not; FN-null cell survival / proliferation with PDGF-BB [6]: robust proliferation; functional activity of TGF-β adhered to FN [15]: retained full functional activity
QLISIQQYGHQEVTRFDFTTTSTST [peptide 2]						inhibition of PDGF-BB binding to FNIII1, FNIII12-14 and IIICS [16]: neither peptide 2, nor the scramble varient of peptide 1 (FN634-658s), demonstrated inhibition
FN70: 70 kDa amino terminus of FN, includes fibrin and gelatin binding domains	None of the GFs detectably bound	None of the GFs detectably bound	None of the GFs detectably bound	None of the GFs detectably bound	did not	binding of any GF (in words) [17]: In no case did any GF bind
FNIII8-11: central cell-binding domain of FN containing RGD	None of the GFs detectably bound	None of the GFs detectably bound	None of the GFs detectably bound	None of the GFs detectably bound	did not	binding of any GF (in words) [17]: In no case did any GF bind; FN-null cell survival with PDGF [6]: failed to survive; support of FN-null fibroblast survival in the presence of PDGF-BB ([6]; substrate coating, FNIII8-11 alone or + named domain): did not support cell survival; type 1 collagen production in response to preincubated TGF-β1 [7]: No increase in collagen synthesis
FNIII1: recombinant first FN type III repeat	all four GFs bound	all four GFs bound	all four GFs bound	all four GFs bound		FN-null cell survival with PDGF [6]: increased survival
FN668-704: one half of the 76 aa FNIII1 peptide FN630-704					demonstrated PDGF-BB binding	
anastellin: 76-aa peptide within FNIII1; anti-angiogenic, promotes FN polymerization	bound	bound	bound	all but VEGF bound	demonstrated PDGF-BB binding	
QPSHISKY (Synthetically generated peptide) [FN634-641, 8 aa peptide from FNIII1]						TGF-β1 binding (in words) [10]: minimal binding activity
QPSHISKYILRWRPKNSVGRWKEAT [peptide 1]						pKd [1]: 6.60; inhibition of PDGF-BB binding to FNIII1, FNIII12-14 and IIICS [16]: marked inhibition; inhibition of TGF-β1 binding to any recombinant FN domain [18]: completely inhibited; inhibition of bFGF binding to any recombinant FN domain [19]: completely inhibited
